Broadly, the EC50 is the concentration needed to bring the measured effect to its halfway point. Higher therefore signals lower potency in that assay.

Substitutions are numbered along the chain they refer to.

Results on 16 molecules are retold here after US20230287088A1 (BIONTECH, published 2023).

The labels stand for the following.
B1: P043.A.00036.C07 (antibody, V domains shown)
VH: QSLEESGGDLVKPGASLTLTCTASGFSFSSSYWICWVRQAPGKGLEWIGCIYTGSGSTWYASWAKGRFTISKTSSTTVTLQMTSLTAADTATYFCARGYGSYMYDFWGPGTLVTVSS
VL: DVVMTQTPASVEAAVGGTVTIKCQASQSISTALAWYQQKPGQPPKLLIYSASTLESGVPSRFKGSGSGTEFTLAISDLESADAATYYCQGADGSSSSFGGGTEVVVK
notes: also called 448; protein sample ID 448
B2: P043.A.00047.H08 (protein sample ID 447) (antibody, V domains shown)
VH: QSLEESGGDLVKPGASLTLTCTASGFSFSSDGMCWVRQAPGKGLEWIACIAAGSSGSTYYATWAQGRFTISKSSSTTVTLQMTSLTAADTATYFCAGEDYTGNNYYALWGPGTLVTVSS
VL: AIDMTQTPSPVSAVVGDTVTINCQASENIYSFLAWYQQKPGQPPKLLIYFASKLASGVPSRFKGSGSGTQFTLTISDVHSDDAAIYYCQQTGTYSDADNTFGGGTEVVVK
notes: also called antibody with the Protein sample ID 447
B3: P043.A.00109.B12 (antibody, V domains shown)
VH: QSLEESGGGLVKPEGSLTLTCKASGFDLNTYYYMCWVRQAPGKGLEWIACIATSDSGHTAYASWARGRFTISKTSSTTVTLQMTGLTAADTATYFCARGGRSVGDGVDLWGPGTLVTVSS
VL: DIVMTQTPASVEAAVGGTVTIKCQASQSISSWLAWYQQKPGQPPKLLIYDASDLASGVPSRFKGSGSGTEFTLTISDLESADAATYYCQSYLYVESGSHGFGFGGGTEVVVR
notes: also called 468; protein sample ID 468
B4: P043.A.00117.C08 (protein sample ID 469) (antibody, V domains shown)
VH: B3 VH with A52G
VL: B3 VL with S52F, V94G
B5: P043.A.00095.D06 (protein sample ID 470) (antibody, V domains shown)
VH: QEQLEESGGDLVKPEGSLTLTCTASGFSFSSNYWICWVRQAPGKGLEWIGCIYIGSGDTYYASWAKGRFTISKTSSTTVTLQMTSLTAADTATYFCARSYTPGSYYNMNLWGPGTLVTVSS
VL: DVVMTQTPSSVSAAVGGTVTINCQASQQISNELSWYQQKSGQPPKLLIYDASDLASGVPSRFKGSGSGTEFTLTISDLESADAATYYCQSTGGASSDGNAFGGGTEVVVK
notes: also called S1 targeting antibody 470; anti-S1-antibody 470
B6: 408: Antibody anti-S1 antibody (LS) (antibody)
heavy: not shown
light: […]
B7: P043.A.00032.C04 (antibody, V domains shown)
VH: QSLEESGGRLVTPGTPLTLTCTASGFSLSSYWMSWVRQAPGKGLEWIGIIYVSGSTYYASWAKGRFTISKTSTTVDLKMTSLTTEDTATYFCARVDYSTGWPLFNIWGPGTLVTVSL
VL: AQVLTQTASPVSAAVGGTVTINCQSSQSVYDNNWLGWYQQKPGQPPKLLIYGASILASGVPSRFKGSGSGTQFTLTISDLESDDAATYYCQGGCSGNTFVFGGGTEVVVK
notes: also called 452; protein sample ID 452
B8: P043.A.00023.E05 (antibody, V domains shown)
VH: QSLEESGGRLVTPGTPLTLTCTVSGFSLSSYAMSWVRQAPGKGLEWIGIISSSGSTYYASWAKGRFTISKTSTTVDLKITSPTTEDTATYFCARDASSRGYYYYYGMDPWGPGTLVTVSS
VL: AIQMTQSPSSLAASVGDTVTITCKASEDIGYGLNWYQQKLGIAPKLLIYGANTLESGVPSRFSGSGSETDYTLTISSVQAEDAGIYYCQQGYSTPLTFGAGTKVEIK
notes: also called 443; protein sample ID 443
B9: P043.A.00017.E04 (antibody, V domains shown)
VH: QSVEESGGRLVTPGTPLTLTCTVSGFSLNNYAMNWVRQAPGKGLEWIGIISSSGNTYYANWAKGRFTISKTSTTVDLKITSPTTEDTATYFCARDSYPGYSPYYGMDPWGPGTLVTVSS
VL: B8 VL with G30A, A43T, D70H, S93N, L96P
B10: P043.A.00097.B02 (antibody, V domains shown)
VH: QELVESGGGLVQAGESLKLSCKASGIDFSSYGISWVRQAPGKGLEWIAYIYPGFGITNYANSVKGRFTISSDNAQNTVFLQMTSLTASDTATYFCTRAYASSSGYYIHYFNLWGPGTLVTVSS
VL: B8 VL with G91A
B11: P043.A.00020.D06 (protein sample ID 444) (antibody, V domains shown)
VH: QSVEESGGRLVTPGTPLTLTCTVSGFSLSSYAMNWVRQAPGKGLEWIGIISSSGSTYYASWAKGRFTISKTSTTVDLKITSPTTEDTATYFCARVGAGYAGYGYDNYYGMDPWGPGTLVTVSS
VL: B8 VL
B12: P043.A.00023.A08 (protein sample ID 446) (antibody, V domains shown)
VH: QSVEESGGRLVTPGTPLTLTCTVSGFSLSKYAMSWVRQAPGKGLEWIGIISSGGSTYYASWAKGRFTISKTSSTTVDLKITSPTTEDTATYFCARAGYPGYSPHYFNIWGPGTLVTVSL
VL: B8 VL with G32E, S63T, L96P
B13: P043.A.00017.E07 (protein sample ID 449) (antibody, V domains shown)
VH: QSVEESGGRLVTPGTPLTLTCTVSGFSLSSYAMSWVRQAPGKGLEWIGIISSSGSTYYASWAKGRFTISKTSTTVDLKITSPTTEDTATYFCARAMYPGYSTGVYNIWGPGTLVTVSL
VL: B8 VL with G32E, S93N, L96N
B14: P043.A.00092.C12 (antibody, V domains shown)
VH: QEELKETGGGLVQPGGSLTLSCKASGFDFSSYYMSWVRQAPGKGLEWIGVIYASKGSTDYASWVNGRFTISSDNAQNTVDLQMNSLTAADTATYYCARSKRFYTYGYAGYAYAHYYYGMDLWGPGTLVTVSS
VL: B8 VL with N52D
notes: also called 472; protein sample ID 472
B15: P043.A.00024.C11 (protein sample ID 451) (antibody, V domains shown)
VH: B8 VH with L3V, S55T, R65P, D95G, A96G, S97A, S98G, R99Y, Y102A, Y103H
VL: B8 VL
B16: P043.A.00018.C02 (protein sample ID 450) (antibody, V domains shown)
VH: B8 VH with L3V, S51N, S53G, G54R, S97T, R99I, Y103R
VL: B8 VL

The target in the test is SARS-CoV-2 S1 protein (HIS tag, active trimer; Acro Biosystems #SPN-C52H8) (SARS-CoV-2, UniProt P0DTC2 16-1213). Nature of the test: ELISA on coated S active trimer.
Take B1: the EC50 came out at 7.7 ng/mL.
For B2, it took 9.1 ng/mL to reach a half-maximal effect (EC50).
For the molecule B3, the response was half-maximal at 10 ng/mL (EC50).
The molecule B4 yielded an EC50 of 7.8 ng/mL.
In the case of B5, the EC50 turned out to be 6.9 ng/mL.
Molecule B6 gave an EC50 of 25.6 ng/mL.
Turning to B7, the midpoint of the response, the EC50, lay at 8.2 ng/mL.
For B8, the EC50 came to 9 ng/mL.
For the molecule B9, a half-maximal effect (EC50) was put at 6.4 ng/mL. The EC50 values of the last two molecules are within 1.5-fold of each other.
Consider B10, for which the EC50 was 6.9 ng/mL.
In the case of B11, the midpoint of the response, the EC50, lay at 11.2 ng/mL. This EC50 lies about 1.6-fold higher than the previous one.
For B12 the value was 5.6 ng/mL; for B13, 6.6 ng/mL.
B14 showed an EC50 of 10.6 ng/mL.
As to B15, the concentration giving a half-maximal response (EC50) is 8.8 ng/mL.
B16 had an EC50 of 6.6 ng/mL.
